Laboratory results: paper PMC3796550, “Phosphorylation of FOXP3 by LCK Downregulates MMP9 Expression and Represses Cell Invasion” (PLoS ONE, 2013)
Values belong to the binder of their own block, whether it stands above or below them.

Biological target: T1, His-LCK (human, UniProt P06239 1-509)
T1 construct: Lymphocyte-specific protein tyrosine kinase (LCK), human, full length; Cloned into pET-32a (BamHI/XhoI); also called Recombinant His-tagged LCK
Assay: pull-down; MBP fusion proteins bound to amylose resin, His-LCK incubated with 50 μL beads in 20 mM HEPES pH 7.4, 0.5% NP-40, 100 mM NaCl for 2 h at 4 °C; eluted with 10 mM maltose; immunoblot with anti-His-Tag and anti-MBP
Conditions: both partners purified

T1 sequence (P06239 whole entry): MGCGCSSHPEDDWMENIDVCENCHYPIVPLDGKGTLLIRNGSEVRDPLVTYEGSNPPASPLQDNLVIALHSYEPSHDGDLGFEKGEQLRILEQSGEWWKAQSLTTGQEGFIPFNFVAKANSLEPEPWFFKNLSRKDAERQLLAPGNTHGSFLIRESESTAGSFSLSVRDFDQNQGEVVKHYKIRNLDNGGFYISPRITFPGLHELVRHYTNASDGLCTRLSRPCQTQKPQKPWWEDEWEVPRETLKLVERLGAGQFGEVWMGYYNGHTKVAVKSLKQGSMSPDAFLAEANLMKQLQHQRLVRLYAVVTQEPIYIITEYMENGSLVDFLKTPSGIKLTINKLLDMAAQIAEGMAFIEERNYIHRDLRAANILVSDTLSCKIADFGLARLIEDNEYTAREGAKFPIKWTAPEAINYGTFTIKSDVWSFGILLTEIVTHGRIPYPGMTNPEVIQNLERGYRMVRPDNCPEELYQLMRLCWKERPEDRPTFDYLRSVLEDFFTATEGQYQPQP

binding result: binds
B1: MBP-FOXP3-Full (natural protein, human, UniProt Q9BZS1 1-431, looked up)
chain: MPNPRPGKPSAPSLALGPSPGASPSWRAAPKASDLLGARGPGGTFQGRDLRGGAHASSSSLNPMPPSQLQLPTLPLVMVAPSGARLGPLPHLQALLQDRPHFMHQLSTVDAHARTPVLQVHPLESPAMISLTPPTTATGVFSLKARPGLPPGINVASLEWVSREPALLCTFPNPSAPRKDSTLSAVPQSSYPLLANGVCKWPGCEKVFEEPEDFLKHCQADHLLDEKGRAQCLLQREMVQSLEQQLVLEKEKLSAMQAHLAGKMALTKASSVASSDKGSCCIVAAGSQGPVVPAWSGPREAPDSLFAVRRHLWGSHGNSTFPEFLHNMDYFKFHNMRPPFTYATLIRWAILEAPEKQRTLNEIYHWFTRMFAFFRNHPATWKNAIRHNLSLHKCFVRVESEKGAVWTVDELEFRKKRSQRPSRCSNPTPGP
notes: Forkhead box P3 (FOXP3), human, full length, amino acids 1-431; Cloned into pMAL-c2 (BamHI/SalI); also called MBP-FOXP3 WT

binding result: binds
B2: MBP-FOXP3 ΔFKH (domain or fragment, human, UniProt Q9BZS1 1-332, looked up)
chain: MPNPRPGKPSAPSLALGPSPGASPSWRAAPKASDLLGARGPGGTFQGRDLRGGAHASSSSLNPMPPSQLQLPTLPLVMVAPSGARLGPLPHLQALLQDRPHFMHQLSTVDAHARTPVLQVHPLESPAMISLTPPTTATGVFSLKARPGLPPGINVASLEWVSREPALLCTFPNPSAPRKDSTLSAVPQSSYPLLANGVCKWPGCEKVFEEPEDFLKHCQADHLLDEKGRAQCLLQREMVQSLEQQLVLEKEKLSAMQAHLAGKMALTKASSVASSDKGSCCIVAAGSQGPVVPAWSGPREAPDSLFAVRRHLWGSHGNSTFPEFLHNMDYFK
notes: Forkhead box P3 (FOXP3), human, fragment with a truncated forkhead domain, amino acids 1-332; Cloned into pMAL-c2; this vector is known to place MBP at the N-terminus (surmised)
